# In patent publication US20160075792A1 (Kyowa Kirin, published 2016):
# Target: T1, human CD40 (human, UniProt P25942 21-277)
# T1 construct: Endogenous CD40 on Ramos cells (ATCC CRL-1596), 'which expresses human CD40'
# Assay: flow cytometry (FACS, MFI) on Ramos cells expressing human CD40, R-PE anti-human antibody detection
# Description: The Ramos cell line was suspended in staining buffer (SB) of PBS containing 0.1% NaN₃, 2 mM EDTA, and 2% FCS at a density of […]. The cell suspension (100 μL/well) was dispensed into a 96-well round-bottom plate (manufactured by Becton Dickinson). The purified antibody (50 μL) was added thereto, followed by incubation at ice temperature for 30 minutes. As negative control, an anti-human IgG2 antibody against 2,4-dinitrophenol was used and the purified antibodies (50 μL) were similarly added, followed by incubation at ice temperature for 15 minutes. After the cells were washed with SB, 50 μL of 250-fold diluted R-PE fluorescence-labeled anti-human antibodies (manufactured by Southern Biotechnology) was added thereto, followed by incubation at ice temperature for 15 minutes. The cells were washed twice with SB and suspended in 300 to 500 μL of FACS buffer. And the fluorescence intensity (MFI) of individual cells was measured by FACS (FACScalibur, manufactured by Becton Dickinson).
# T1 sequence (P25942 21-277 limits assumed): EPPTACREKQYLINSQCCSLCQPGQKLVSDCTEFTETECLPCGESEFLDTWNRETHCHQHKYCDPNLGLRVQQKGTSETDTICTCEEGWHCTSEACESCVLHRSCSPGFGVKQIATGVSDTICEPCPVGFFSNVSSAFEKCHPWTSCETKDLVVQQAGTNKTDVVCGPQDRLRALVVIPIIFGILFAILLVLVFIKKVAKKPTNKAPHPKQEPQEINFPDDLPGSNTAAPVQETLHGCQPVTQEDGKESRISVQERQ
row,binding result,Binder
1,binds,"IgG2-AAS(341) antibody (antibody, kappa light chain; Signal peptides (1-20 of each chain, estimated by SignalP) are left out; Expressed transiently in 293 cells and purified on protein A) heavy: QVQLQQSGPGLVKPSQTLSLTCAISGDSVSSNSATWNWIRQSPSRDLEWLGRTYYRSKWYRDYVGSVKSRIIINPDTSNNQFSLQLNSVTPEDTAIYYCTRAQWLGGDYPYYYSMDVWGQGTTVTVSSASTKGPSVFPLAPCSRSTSESTAALGCLVKDYFPEPVTVSWNSGALTSGVHTFPAVLQSSGLYSLSSVVTVPSSNFGTQTYTCNVDHKPSNTKVDKTVERKCCVECPPCPAPPAAAPSVFLFPPKPKDTLMISRTPEVTCVVVDVSHEDPEVQFNWYVDGVEVHNAKTKPREEQFNSTFRVVSVLTVVHQDWLNGKEYKCKVSNKGLPASIEKTISKTKGQPREPQVYTLPPSREEMTKNQVSLTCLVKGFYPSDIAVEWESNGQPENNYKTTPPMLDSDGSFFLYSKLTVDKSRWQQGNVFSCSVMHEALHNHYTQKSLSLSPGK light: not shown"
2,binds,IgG2-S(341) antibody (antibody) heavy: QVQLQQSGPGLVKPSQTLSLTCAISGDSVSSNSATWNWIRQSPSRDLEWLGRTYYRSKWYRDYVGSVKSRIIINPDTSNNQFSLQLNSVTPEDTAIYYCTRAQWLGGDYPYYYSMDVWGQGTTVTVSSASTKGPSVFPLAPCSRSTSESTAALGCLVKDYFPEPVTVSWNSGALTSGVHTFPAVLQSSGLYSLSSVVTVPSSNFGTQTYTCNVDHKPSNTKVDKTVERKCCVECPPCPAPPVAGPSVFLFPPKPKDTLMISRTPEVTCVVVDVSHEDPEVQFNWYVDGVEVHNAKTKPREEQFNSTFRVVSVLTVVHQDWLNGKEYKCKVSNKGLPASIEKTISKTKGQPREPQVYTLPPSREEMTKNQVSLTCLVKGFYPSDIAVEWESNGQPENNYKTTPPMLDSDGSFFLYSKLTVDKSRWQQGNVFSCSVMHEALHNHYTQKSLSLSPGK light: not shown
